Source: article PMC9178029, “The structure of EXTL3 helps to explain the different roles of bi-domain exostosins in heparan sulfate synthesis” (Nature Communications, 2022)

Target: the molecule itself
Assay: cryo-EM structure; single-particle cryo-EM of purified EXTL3ΔN at 0.1-0.4 mg/ml, C2 symmetry; apo (2.4 Å) and with 10 mM UDP and 2.5 mM MnCl2 (2.9 Å); buffer 50 mM Tris-HCl pH 6.8, 100 mM NaCl, 50 mM KCl

B1: EXTL3ΔN, soluble form of human exostosin-like 3 (EXTL3) lacking the first 51 amino acids (enzyme, UniProt O43909 52-919, looked up)
chain: TTLDEADEAGKRIFGPRVGNELCEVKHVLDLCRIRESVSEELLQLEAKRQELNSEIAKLNLKIEACKKSIENAKQDLLQLKNVISQTEHSYKELMAQNQPKLSLPIRLLPEKDDAGLPPPKATRGCRLHNCFDYSRCPLTSGFPVYVYDSDQFVFGSYLDPLVKQAFQATARANVYVTENADIACLYVILVGEMQEPVVLRPAELEKQLYSLPHWRTDGHNHVIINLSRKSDTQNLLYNVSTGRAMVAQSTFYTVQYRPGFDLVVSPLVHAMSEPNFMEIPPQVPVKRKYLFTFQGEKIESLRSSLQEARSFEEEMEGDPPADYDDRIIATLKAVQDSKLDQVLVEFTCKNQPKPSLPTEWALCGEREDRLELLKLSTFALIITPGDPRLVISSGCATRLFEALEVGAVPVVLGEQVQLPYQDMLQWNEAALVVPKPRVTEVHFLLRSLSDSDLLAMRRQGRFLWETYFSTADSIFNTVLAMIRTRIQIPAAPIREEAAAEIPHRSGKAAGTDPNMADNGDLDLGPVETEPPYASPRYLRNFTLTVTDFYRSWNCAPGPFHLFPHTPFDPVLPSEAKFLGSGTGFRPIGGGAGGSGKEFQAALGGNVPREQFTVVMLTYEREEVLMNSLERLNGLPYLNKVVVVWNSPKLPSEDLLWPDIGVPIMVVRTEKNSLNNRFLPWNEIETEAILSIDDDAHLRHDEIMFGFRVWREARDRIVGFPGRYHAWDIPHQSWLYNSNYSCELSMVLTGAAFFHKYYAYLYSYVMPQAIRDMVDEYINCEDIAMNFLVSHITRKPPIKVTSRWTFRCPGCPQALSHDDSHFHERHKCINFFVKVYGYMPLLYTQFRVDSVLFKTRLPHDKTKCFKFI
modifications: partial N-glycans modelled at Asn592 and Asn790; intermolecular disulfide bridges between Cys793 and Cys915
notes: human exostosin-like 3 (EXTL3), amino acids 52-919; holds the predicted coiled coil, the GT47 domain, the inter-domain linker and the GT64 domain; lacks the transmembrane helix; Only the 170 kDa globular part (GT47, linker, GT64) is seen in the map; the coiled coil is not visible; also called EXTL3∆N; secretory EXTL3∆N
stoichiometry N: 2
